# B1: 6mer-1-557 (peptide)
# peptide: KRQVQK
# B2: 6mer-1-562 (peptide)
# peptide: KRSYQR
# B3: 6mer-1-551 (peptide)
# peptide: KRGRLR
# B4: 6mer-1-573 (peptide)
# peptide: KRVLLR
# B5: 6mer-1-571 (peptide)
# peptide: RKLLCK
# B6: 6mer-1-576 (peptide)
# peptide: RKRQRR
# B7: 6mer-1-566 (peptide)
# peptide: KKSFCR
# B8: 6mer-1-555 (peptide)
# peptide: KKWYLK
# B9: 6mer-1-559 (peptide)
# peptide: RRRLTK
# B10: 6mer-1-558 (peptide)
# peptide: RRLIQR
# B11: 6mer-1-577 (peptide)
# peptide: KKQYQR
# B12: 6mer-1-563 (peptide)
# peptide: RRSFTR
# B13: 6mer-1-569 (peptide)
# peptide: RRVITK
# B14: 6mer-1-546 (peptide)
# peptide: RKLVQR
# B15: 6mer-1-542 (peptide)
# peptide: KRWFRR
# B16: 6mer-1-570 (peptide)
# peptide: RKRLRK
# B17: 6mer-1-539 (peptide)
# peptide: KRGIRK
# B18: 6mer-1-556 (peptide)
# peptide: KKGFTK
# B19: 6mer-1-540 (peptide)
# peptide: KRVQTR
# B20: 6mer-1-544 (peptide)
# peptide: KRVICR
# B21: 6mer-1-535 (peptide)
# peptide: RRVILK
# B22: 6mer-1-553 (peptide)
# peptide: RRGVRK
# B23: 6mer-1-578 (peptide)
# peptide: RKGQYK
# B24: 6mer-1-538 (peptide)
# peptide: RRSQCK
# B25: 6mer-1-564 (peptide)
# peptide: KRSITK
# B26: 6mer-1-548 (peptide)
# peptide: RRVYSR
# B27: 6mer-1-545 (peptide)
# peptide: RRSYRK
# B28: 6mer-1-572 (peptide)
# peptide: KRVLLK
# B29: 6mer-1-579 (peptide)
# peptide: KRSVRK
# B30: 6mer-1-549 (peptide)
# peptide: KKSYQR
# B31: 6mer-1-550 (peptide)
# peptide: RRLICR
# B32: 6mer-1-568 (peptide)
# peptide: KRWQQK
# B33: 6mer-1-537 (peptide)
# peptide: RRGLCK
# B34: 6mer-1-565 (peptide)
# peptide: KRSIRR
# B35: 6mer-1-552 (peptide)
# peptide: RKRYRK
# B36: 6mer-1-574 (peptide)
# peptide: RKSYLR
# B37: 6mer-1-580 (peptide)
# peptide: KKSLQK
# B38: 6mer-1-536 (peptide)
# peptide: RRWFRK
# B39: 6mer-1-567 (peptide)
# peptide: KKRVSR
# B40: 6mer-1-561 (peptide)
# peptide: RKVYLK
# B41: 6mer-1-575 (peptide)
# peptide: KRWVRR
# B42: 6mer-1-541 (peptide)
# peptide: RKWFTR
# B43: 6mer-1-543 (peptide)
# peptide: RRSVCK
# B44: 6mer-1-554 (peptide)
# peptide: KRSVTR
# B45: 6mer-1-547 (peptide)
# peptide: RKVQQR
# B46: 6mer-1-560 (peptide)
# peptide: RRSFSK
# B47: 6mer-2-514 (peptide)
# peptide: KGLQKK
# B48: 6mer-2-532 (peptide)
# peptide: KSITKR
# B49: 6mer-2-533 (peptide)
# peptide: KRLLKR
# B50: 6mer-2-525 (peptide)
# peptide: KWVRKK
# B51: 6mer-2-520 (peptide)
# peptide: KSYCKR
# B52: 6mer-2-528 (peptide)
# peptide: KGFRKK
# B53: 6mer-2-503 (peptide)
# peptide: KVQTKK
# B54: 6mer-2-507 (peptide)
# peptide: RGICKR
# B55: 6mer-2-523 (peptide)
# peptide: RGRYKR
# B56: 6mer-2-502 (peptide)
# peptide: KSFCKR
# B57: 6mer-2-534 (peptide)
# peptide: RVQLRR
# B58: 6mer-2-518 (peptide)
# peptide: KLVTKK
# B59: 6mer-2-505 (peptide)
# peptide: KRQCKK
# B60: 6mer-2-531 (peptide)
# peptide: KVIYKR
# B61: 6mer-2-524 (peptide)
# peptide: RGIQKR
# B62: 6mer-2-521 (peptide)
# peptide: KQYTRK
# B63: 6mer-2-506 (peptide)
# peptide: KSLLKK
# B64: 6mer-2-515 (peptide)
# peptide: RWYCRK
# B65: 6mer-2-510 (peptide)
# peptide: KRVLKK
# B66: 6mer-2-519 (peptide)
# peptide: KQIQRR
# B67: 6mer-2-513 (peptide)
# peptide: RRLTRK
# B68: 6mer-2-509 (peptide)
# peptide: RGFYRK
# B69: 6mer-2-529 (peptide)
# peptide: KQQRKR
# B70: 6mer-2-530 (peptide)
# peptide: RSYSKR
# B71: 6mer-2-527 (peptide)
# peptide: RGQTRR
# B72: 6mer-2-516 (peptide)
# peptide: RQQQKK
# B73: 6mer-2-511 (peptide)
# peptide: RVFCRR
# B74: 6mer-2-522 (peptide)
# peptide: RVVLRK
# B75: 6mer-2-512 (peptide)
# peptide: RWFTRR
# B76: 6mer-2-517 (peptide)
# peptide: KLRTKK
# B77: 6mer-2-526 (peptide)
# peptide: RVLLRK
# B78: 6mer-2-508 (peptide)
# peptide: RVFLKK
# B79: 6mer-2-504 (peptide)
# peptide: RGLTRK
# Biological target: acetylcholine receptor
# Assay: SPR, acetylcholine receptor on CM5 chip, peptide at 10 uM
row,Binder,Binding affinity (RU)
1,B1,128
2,B2,148
3,B3,142
4,B4,126
5,B5,154
6,B6,153
7,B7,148
8,B8,128
9,B9,139
10,B10,139
11,B11,128
12,B12,139
13,B13,148
14,B14,123
15,B15,128
16,B16,122
17,B17,148
18,B18,145
19,B19,128
20,B20,149
21,B21,139
22,B22,128
23,B23,139

row,Binder,Binding affinity (RU)
1,B24,142
2,B25,139
3,B26,123
4,B27,127
5,B28,126
6,B29,148
7,B30,142
8,B31,148
9,B32,147
10,B33,154
11,B34,151
12,B35,144
13,B36,148
14,B37,121
15,B38,151
16,B39,136
17,B40,131
18,B41,148
19,B42,136
20,B43,145
21,B44,131
22,B45,148
23,B46,127

# Biological target: acetylcholine receptor
# Assay: SPR, receptor immobilised on chip, peptide at 10 µM
row,Binder,Binding affinity [RU]
1,B47,124
2,B48,147
3,B49,142
4,B50,145
5,B51,144
6,B52,151
7,B53,154
8,B54,145
9,B55,146
10,B56,144
11,B57,139
12,B58,151
13,B59,148
14,B60,148
15,B61,128
16,B62,144
17,B63,135

row,Binder,Binding affinity [RU]
1,B64,123
2,B65,146
3,B66,135
4,B67,121
5,B68,136
6,B69,124
7,B70,139
8,B71,145
9,B72,146
10,B73,126
11,B74,124
12,B75,148
13,B76,153
14,B77,144
15,B78,121
16,B79,154

# Source: US20250011363A1, “OPTIMIZED SHORTENED PEPTIDE THAT BINDS TO ACETYLCHOLINE RECEPTOR, AND USE THEREOF” (SKINMED CO., LTD., priority 2021, published 2025)
